In the supplement of paper PMC10724198:
± gives the standard deviation of the averaged measurements.

Assays:
Test in all cases: protein stability index of tFT-peptide fusion (C-terminal peptide) (PSI (0-1 scale)); higher = more stable (slower turnover)
[1] = tested on: Saccharomyces cerevisiae; settings: temperature: 30 C
Protocol: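 MPS profiling in S. cerevisiae of the yeast C-terminome library: the last 12 aa of each annotated ORF are fused to the C-terminus of a sfGFP-mCherry timer, after a GGGS linker. Cells are FACS-sorted into 8 mCherry/sfGFP bins and deep-sequenced. PSI runs from 0 (unstable) to 1 (stable); wild type and das1Δ backgrounds, two technical replicates each.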

[2] = tested on: Saccharomyces cerevisiae
Protocol: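 MPS profiling in S. cerevisiae of the tFT-X12 degron library: putative degron peptides plus stable controls, 12 aa, fused to the C-terminus of a sfGFP-mCherry timer. Cells are FACS-sorted into 8 mCherry/sfGFP bins and deep-sequenced. PSI runs from 0 (unstable) to 1 (stable). Backgrounds are wild type, das1Δ and doa10Δ at 30 °C, and wild type, das1Δ, cdc34-1 and cdc53-1 at 37 °C; 2-3 technical replicates each.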

[3] = tested on: Saccharomyces cerevisiae; settings: genetic background: wild type; temperature: 30 C
[4] = genetic background: das1 deletion
[5] = genetic background: cdc34-1, temperature: 37 C
[6] = genetic background: cdc53-1, temperature: 37 C
[7] = genetic background: das1 deletion, temperature: 30 C
[8] = genetic background: das1 deletion, temperature: 37 C
[9] = genetic background: doa10 deletion, temperature: 30 C
[10] = genetic background: wild type, temperature: 30 C
[11] = genetic background: wild type, temperature: 37 C

Row | Sequence | protein stability index [1, 4] | protein stability index ([1]; genetic background: wild type) | protein stability index [2, 5] | protein stability index [2, 6] | protein stability index [2, 7] | protein stability index [2, 8] | protein stability index [2, 9] | protein stability index [2, 10] | protein stability index [2, 11] | protein stability index [3]
1 | AADPLSNDALFK [BRX1 C-terminal 12 aa] | 0.733 ± 0.063 | 0.737 ± 0.12 | – | – | – | – | – | – | – | –
2 | AADRDNKKDEST [XRN1 C-terminal 12 aa] | 0.6981 ± 0.0034 | 0.668 ± 0.057 | – | – | – | – | – | – | – | –
3 | AAGKANKQFAKF [RPS11A C-terminal 12 aa] | 0.8136 ± 0.0019 | 0.807 ± 0.042 | – | – | – | – | – | – | – | –
4 | AAIPVILAKIKV [SHE4 C-terminal 12 aa] | 0.502 ± 0.019 | 0.56 ± 0.13 | – | – | – | – | – | – | – | –
5 | ACYVQLKKSGAF [COX8 C-terminal 12 aa] | 0.6966 ± 0.0035 | 0.669 ± 0.024 | – | – | – | – | – | – | – | –
6 | AGATTSRFIPLK [RPS15 C-terminal 12 aa] | 0.685 ± 0.023 | 0.652 ± 0.01 | – | – | – | – | – | – | – | –
7 | AGTDKNTHPSSQ [SNT2 C-terminal 12 aa] | 0.692 ± 0.0098 | 0.694 ± 0.019 | – | – | – | – | – | – | – | –
8 | AIEEGAGAFLLS [UFD4 C-terminal 12 aa] | 0.706 ± 0.03 | 0.6771 ± 0.0053 | – | – | – | – | – | – | – | –
9 | AIFTAFTQVVLI [TOH1 C-terminal 12 aa] | 0.4858 ± 0.0044 | 0.4983 ± 0.00094 | – | – | – | – | – | – | – | –
10 | AIHLEAVSLVDC [CIS3 C-terminal 12 aa] | 0.599 ± 0.011 | 0.611 ± 0.024 | – | – | – | – | – | – | – | –
11 | AKELISAIFFGE [TAF6 C-terminal 12 aa] | 0.698 ± 0.057 | 0.6614 ± 0.0044 | – | – | – | – | – | – | – | –
12 | AKGLAKTEIANQ [GIR2 C-terminal 12 aa] | 0.686 ± 0.018 | 0.656 ± 0.013 | – | – | – | – | – | – | – | –
13 | AKPAYHWQTRYR [KIN3 C-terminal 12 aa] | 0.703 ± 0.021 | 0.665 ± 0.017 | – | – | – | – | – | – | – | –
14 | WISVRIFISCFF | – | – | 0.177 ± 0.0059 | 0.269 ± 0.02 | 0.191 ± 0.024 | 0.318 ± 0.0052 | 0.192 ± 0.0026 | 0.191 ± 0.035 | 0.271 ± 0.0047 | 0.267 ± 0.022
15 | WLCLAVLVRFPC | – | – | 0.273 ± 0.0054 | 0.274 ± 0.018 | 0.25 ± 0.043 | 0.3989 ± 0.0019 | 0.2621 ± 0.0017 | 0.248 ± 0.017 | 0.369 ± 0.018 | 0.3532 ± 0.0026
16 | WQIGIYILQGLA | – | – | 0.271 ± 0.03 | 0.316 ± 0.0064 | 0.242 ± 0.04 | 0.389 ± 0.018 | 0.146 ± 0.011 | 0.163 ± 0.049 | 0.262 ± 0.015 | 0.256 ± 0.023
17 | WSCVGLWGRFCC | – | – | 0.663 ± 0.033 | 0.748 ± 0.018 | 0.637 ± 0.011 | 0.76 ± 0.013 | 0.267 ± 0.011 | 0.299 ± 0.0093 | 0.57 ± 0.0094 | 0.448 ± 0.036
18 | WSISFGLLVCWV | – | – | 0.27 ± 0.045 | 0.322 ± 0.0049 | 0.199 ± 0.019 | 0.42 ± 0.013 | 0.154 ± 0.012 | 0.191 ± 0.016 | 0.379 ± 0.066 | 0.233 ± 0.039
19 | WVFVVWFVFVVG | – | – | 0.242 ± 0.022 | 0.3112 ± 0.00051 | 0.241 ± 0.022 | 0.374 ± 0.021 | 0.202 ± 0.013 | 0.215 ± 0.02 | 0.356 ± 0.03 | 0.322 ± 0.016
20 | WVGGVLLSVVGG | – | – | 0.158 ± 0.014 | 0.413 ± 0.041 | 0.213 ± 0.028 | 0.349 ± 0.0084 | 0.179 ± 0.01 | 0.192 ± 0.029 | 0.399 ± 0.059 | 0.245 ± 0.014
21 | WVRLGRSWTTVG | – | – | 0.68 ± 0.054 | 0.736 ± 0.013 | 0.686 ± 0.035 | 0.754 ± 0.013 | 0.22 ± 0.034 | 0.283 ± 0.016 | 0.549 ± 0.0057 | 0.422 ± 0.029
22 | WVRLWGVLEAQG | – | – | 0.349 ± 0.013 | 0.445 ± 0.022 | 0.334 ± 0.028 | 0.369 ± 0.0011 | 0.344 ± 0.028 | 0.332 ± 0.012 | 0.3675 ± 0.0028 | 0.3627 ± 0.0029
23 | WVSFYLLFFFSF | – | – | 0.459 ± 0.007 | 0.4959 ± 0.0028 | 0.42 ± 0.044 | 0.539 ± 0.015 | 0.395 ± 0.0067 | 0.395 ± 0.017 | 0.5 ± 0.015 | 0.483 ± 0.023
24 | YFFFPILCFCFF | – | – | 0.439 ± 0.03 | 0.43 ± 0.012 | 0.38 ± 0.028 | 0.479 ± 0.0088 | 0.429 ± 0.028 | 0.381 ± 0.018 | 0.437 ± 0.0084 | 0.419 ± 0.047
25 | YFLFLRLVFLFF | – | – | 0.217 ± 0.015 | 0.222 ± 0.032 | 0.233 ± 0.018 | 0.3874 ± 0.0034 | 0.186 ± 0.013 | 0.178 ± 0.018 | 0.257 ± 0.0034 | 0.23 ± 0.032
26 | YILLRWVNLSCL | – | – | 0.524 ± 0.012 | 0.587 ± 0.013 | 0.488 ± 0.022 | 0.645 ± 0.0099 | 0.149 ± 0.017 | 0.156 ± 0.021 | 0.283 ± 0.0069 | 0.236 ± 0.062
27 | YPVAWSSAIIIR | – | – | 0.438 ± 0.041 | 0.4531 ± 0.0036 | 0.362 ± 0.022 | 0.5314 ± 0.0037 | 0.423 ± 0.018 | 0.371 ± 0.017 | 0.506 ± 0.0061 | 0.435 ± 0.025
28 | YQKIARVSLAVS | – | – | 0.466 ± 0.015 | 0.512 ± 0.02 | 0.347 ± 0.038 | 0.526 ± 0.014 | 0.27 ± 0.021 | 0.328 ± 0.025 | 0.4779 ± 0.0035 | 0.424 ± 0.015
29 | YVIGLLFVVSGV | – | – | 0.265 ± 0.013 | 0.366 ± 0.025 | 0.258 ± 0.044 | 0.465 ± 0.029 | 0.229 ± 0.0076 | 0.251 ± 0.033 | 0.385 ± 0.03 | 0.39 ± 0.0085
30 | YYKGGYLYLRLS | – | – | 0.398 ± 0.031 | 0.4395 ± 0.0037 | 0.454 ± 0.029 | 0.607 ± 0.035 | 0.171 ± 0.0093 | 0.15 ± 0.018 | 0.316 ± 0.036 | 0.253 ± 0.015
